Where two headings read alike, the source gives them in different places.

Test [1] concerns the target HLA-A*0201 heavy chain with β2-microglobulin. As to the kind of experiment: differential scanning fluorimetry.
Test [2] has as its target HLA-DR1 (DRA*0101/DRB*010101), soluble extracellular domains (human).
Test [3] has the same target. The source holds these as a separate data set.
Test [4] has as its target HLA-A*0201 heavy chain with β2-microglobulin. Kind of test: circular dichroism. (CD spectra are sensitive to the conformation of chiral molecules.)
The target of test [5] is HLA-DR1 (DRA*0101/DRB*010101), soluble extracellular domains (human). As to the kind of experiment: differential scanning fluorimetry. A general note: Differential scanning fluorimetry follows unfolding on heating by fluorescence.

Turning to SL9 peptide, the apparent Tm by DSF in test [1] stood at 59 °C.
Still for that read-out and setting: as for tyrosinase peptide (TYR), the figure is 67.3 °C.
On the same count and under the same terms, the result for NS3_(1406(7N)-1415) peptide reads 55.8 °C.
Turning to influenza HA peptide, the apparent Tm by DSF came to 82.1 °C in test [2] and 83 °C in test [3].

B1: gp100_(209(2M)-217) peptide (peptide)
peptide: IMDQVPFSV
As to B1, the apparent Tm by DSF in test [1] was 62.2 °C.

B2: TYR (T5F) peptide (peptide)
peptide: YMDGFMSQV
On to B2, for which the apparent Tm by CD in test [4] was 63 °C. For the same molecule, the apparent Tm by DSF in test [1] was 61.4 °C.

B3: HUD_(87(2L,9V)-95) peptide (peptide)
peptide: LLYGFVNYV
Turning to B3, the apparent Tm by CD in test [4] was 63 °C. Further, in test [1], the apparent Tm by DSF came out at 65.1 °C.

B4: Min4 peptide (peptide)
peptide: YRAL
The molecule B4 gave an other in test [5] of 67.8 °C.

B5: HUD peptide (peptide)
peptide: LGYGFVNYI
On to B5, for which the apparent Tm by DSF in test [1] was 44.8 °C.

B6: MART-1_(27(2L)-35) peptide (peptide)
peptide: ALGIGILTV
Consider B6, for which the apparent Tm by CD in test [4] was 51 °C. For the same molecule, in test [1], the apparent Tm by DSF stood at 59.2 °C and the half-life of the complex (slowest phase, peptide dissociation) is 6.9 h.

The record behind these values is PMC4837003.
